# In patent publication US20260007714A1 (TEN PEAKS, published 2026):
# B1: SEQ ID NO: 2 (TKGPSVFPL), synthetic peptide derived from the infliximab heavy chain (peptide)
# peptide: TKGPSVFPL
# notes: Synthetic peptide (Genscript) derived from infliximab; also called 3901_tkg
# B2: SEQ ID NO: 1 (THQGLSSPV), synthetic peptide derived from the infliximab light chain (peptide)
# peptide: THQGLSSPV
# notes: Synthetic peptide (Genscript) derived from infliximab; also called 3901_thq
# What was measured:
# HLA-B*57:01 = target: T1, HLA-B*57:01 (human); assay: refolding of HLA with synthetic peptide, size-exclusion chromatography (FIG. 4A)
# T1 construct: the method paragraph describes expression only for HLA-B*39:01; also called HLA-B*057:01
# HLA-B*15:01 = target: T2, HLA-B*15:01 (human); assay: refolding of HLA with synthetic peptide, size-exclusion chromatography (FIG. 4B)
# T2 construct: the method paragraph describes expression only for HLA-B*39:01
Binder,binding result (HLA-B*57:01),binding result (HLA-B*15:01)
B1,no binding,no binding
B2,no binding,no binding
